We go through 2 substances from patent publication US20050277581A1.

Values joined by “and” are separate entries in the source; they are usually repeats but may differ in a detail not shown here. Equal values may be shown once.

The target in test [1] is N,N′-diacetyl-Lys-D-Ala-D-Ala (Sigma D-9904, fw 372.4). The test is described as follows: ITC, 25 C, 430 µM HSA present.
The target is the same in test [2]. The test is described as follows: ITC, 25 C, 288 µM HSA present.
The target of test [3] is human albumin (HSA; Sigma A-3782; mw 69,366) (human) (UniProt P02768). As to the kind of experiment: calculated from ITC Ka, dalbavancin 1-500 µM.
Test [4] addresses N,N′-diacetyl-Lys-D-Ala-D-Ala (Sigma D-9904, fw 372.4). The test is described as follows: ITC, 37 C, 482 µM HSA present.
Test [5] has the same target. The test is described as follows: ITC, 25 C, 104 µM HSA present.
For test [6] the target is unchanged. As to the kind of experiment: ITC, 25 C, 601 µM HSA present.
For test [7] the target is unchanged. The test is described as follows: ITC, preliminary experiments, no serum proteins.
The target is the same in test [8]. The test is described as follows: ITC, 37 C, no HSA.
For the next test, the target named is rat albumin (rat) (UniProt P02770). The test is described as follows: ITC, protein injected into dalbavancin.
rat albumin (rat), sequence (P02770 25-608 limits assumed): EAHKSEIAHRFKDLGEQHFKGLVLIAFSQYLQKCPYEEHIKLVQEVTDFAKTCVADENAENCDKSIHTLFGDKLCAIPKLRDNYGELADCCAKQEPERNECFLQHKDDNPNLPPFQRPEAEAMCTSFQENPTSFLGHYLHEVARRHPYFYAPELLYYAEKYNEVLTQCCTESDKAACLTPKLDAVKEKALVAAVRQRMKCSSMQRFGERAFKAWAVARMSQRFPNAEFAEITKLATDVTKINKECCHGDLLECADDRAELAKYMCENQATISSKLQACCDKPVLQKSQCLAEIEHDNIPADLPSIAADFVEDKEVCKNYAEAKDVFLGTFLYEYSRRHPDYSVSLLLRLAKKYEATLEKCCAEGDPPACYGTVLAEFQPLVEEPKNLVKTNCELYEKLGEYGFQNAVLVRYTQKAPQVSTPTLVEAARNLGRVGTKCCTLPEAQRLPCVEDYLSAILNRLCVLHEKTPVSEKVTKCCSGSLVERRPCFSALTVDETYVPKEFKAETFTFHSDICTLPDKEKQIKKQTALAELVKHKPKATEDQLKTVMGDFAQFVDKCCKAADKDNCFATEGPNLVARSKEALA
The target in test [9] is human α-glycoprotein (human) (UniProt P02763). The test is described as follows: ITC, protein injected into dalbavancin.
human α-glycoprotein (human), sequence (P02763 19-201): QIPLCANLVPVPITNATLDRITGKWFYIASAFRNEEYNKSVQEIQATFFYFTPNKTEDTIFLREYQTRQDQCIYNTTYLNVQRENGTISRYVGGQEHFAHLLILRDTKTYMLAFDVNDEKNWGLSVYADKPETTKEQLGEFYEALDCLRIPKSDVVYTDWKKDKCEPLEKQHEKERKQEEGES
The next test concerns the target dog albumin (dog) (UniProt P49822). As to the kind of experiment: ITC, protein injected into dalbavancin.
The target in another test is bovine albumin (bovine) (UniProt P02769). The test is described as follows: ITC, protein injected into dalbavancin.
bovine albumin (bovine), sequence (P02769 25-607 limits assumed): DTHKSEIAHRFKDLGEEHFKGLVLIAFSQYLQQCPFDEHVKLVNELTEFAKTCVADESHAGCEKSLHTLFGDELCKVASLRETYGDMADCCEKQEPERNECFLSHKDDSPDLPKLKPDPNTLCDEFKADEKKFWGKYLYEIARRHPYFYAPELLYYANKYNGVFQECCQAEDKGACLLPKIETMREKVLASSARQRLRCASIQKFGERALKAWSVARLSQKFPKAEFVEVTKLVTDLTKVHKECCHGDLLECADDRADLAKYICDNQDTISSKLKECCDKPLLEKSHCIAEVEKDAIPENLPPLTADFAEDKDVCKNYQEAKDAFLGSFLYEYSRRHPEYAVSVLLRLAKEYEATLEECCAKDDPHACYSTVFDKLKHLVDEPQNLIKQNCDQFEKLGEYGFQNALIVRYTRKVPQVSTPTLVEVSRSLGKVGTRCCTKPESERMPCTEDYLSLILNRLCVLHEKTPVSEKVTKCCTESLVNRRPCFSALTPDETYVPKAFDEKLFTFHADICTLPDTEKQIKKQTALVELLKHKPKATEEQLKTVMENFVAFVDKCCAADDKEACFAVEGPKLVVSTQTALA
The target in a further test is mouse serum proteins. As to the kind of experiment: cell-based or functional assay.
The target in the next test is human serum proteins. The test is described as follows: cell-based or functional assay.
Test [10] addresses N,N′-diacetyl-Lys-D-Ala-D-Ala (Sigma D-9904, fw 372.4). As to the kind of experiment: ITC, 25 C, non-competitive binding model (KL).
For test [11] the target is unchanged. The test is described as follows: ITC, 25 C, no HSA.
Test [12] shares this target. As to the kind of experiment: ITC, 25 C, 513 µM HSA present.
Test [13] has the same target. As to the kind of experiment: ITC, 10 C, no HSA.

dog albumin (dog), sequence (P49822 25-608 limits assumed): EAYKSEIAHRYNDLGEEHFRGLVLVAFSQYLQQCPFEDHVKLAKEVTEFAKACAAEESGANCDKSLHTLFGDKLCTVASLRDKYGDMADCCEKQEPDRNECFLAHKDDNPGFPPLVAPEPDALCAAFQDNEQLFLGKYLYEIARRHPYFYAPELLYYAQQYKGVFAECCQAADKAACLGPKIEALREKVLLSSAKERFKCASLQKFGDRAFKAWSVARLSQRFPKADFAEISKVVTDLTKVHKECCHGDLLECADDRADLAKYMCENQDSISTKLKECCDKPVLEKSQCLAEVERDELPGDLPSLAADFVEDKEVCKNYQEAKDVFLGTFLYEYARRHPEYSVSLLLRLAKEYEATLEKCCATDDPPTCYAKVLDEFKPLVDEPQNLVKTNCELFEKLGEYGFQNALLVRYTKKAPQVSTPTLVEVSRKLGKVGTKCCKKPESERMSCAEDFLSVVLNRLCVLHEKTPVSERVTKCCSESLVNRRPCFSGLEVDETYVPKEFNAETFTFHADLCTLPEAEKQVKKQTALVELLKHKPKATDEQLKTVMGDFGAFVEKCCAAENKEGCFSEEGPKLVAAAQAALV

As to Dalbavancin (peptide), the N in test [1] turned out to be 1.24; in test [2] it was 0.9; in [4] it was 0.179; in test [5] it was 1.38; in test [6] it was 0.86; in test [8] it was 0.82. The percent bound in test [3] is greater than 98%. The dissociation constant (Kd) in test [7] amounted to 10 µM; in [10], 3 µM. The N (moles of protein per dalbavancin) (with rat albumin (rat); in test [9]; with dog albumin (dog); in the test with bovine albumin (bovine)) was less than 1 each time. For the same substance, in the test with mouse serum proteins, the degree of protein binding estimated from MIC difference was 99.6%. Further, the degree of binding in human serum estimated from MIC difference in the test with human serum proteins is 96%.
For the substance “Vancomycin hydrochloride (Sigma V-2002, fw 1485.7) (peptide)”, the N in test [11] is 0.91 and 0.97; in [12] it was 1.05; in test [13] it was 1.1.
